Assay results from patent US20200200751A1 (ECS PROGASTRIN, published 2020).

B1: mAb13 (hybridoma 2C6C3C7) (antibody, V domains shown)
VH: EVQLVESGGGLVQPGGSLKLSCAASGFIFSSYGMSWVRQSPDRRLELVASINTFGDRTYYPDSVKGRFTISRDNAKNTLYLQMTSLKSEDTAIYYCARGTGTYWGQGTTLTVSS
VL: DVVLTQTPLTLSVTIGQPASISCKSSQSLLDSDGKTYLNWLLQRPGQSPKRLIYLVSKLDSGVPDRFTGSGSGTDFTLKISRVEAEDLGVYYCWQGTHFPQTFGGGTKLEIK
notes: Murine variable domains (mVH 13 / mVL 13)
B2: mAb16 (hybridoma 1E9D9B6) (antibody, V domains shown)
VH: QVQLQQSGAELVKPGASVKLSCKASGYTFTSYYMYWVKQRPGQGLEWIGEINPSNGGTNFNEKFKSKATLTVDKSSSTAYMQLSSLTSEDSAVYYCTRGGYYPFDYWGQGTTLTVSS
VL: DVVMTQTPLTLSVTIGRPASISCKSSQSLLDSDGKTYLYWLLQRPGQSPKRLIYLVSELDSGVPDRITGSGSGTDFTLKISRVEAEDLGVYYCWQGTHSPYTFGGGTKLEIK
notes: Murine variable domains (mVH 16 / mVL 16)
B3: mAb3 (hybridoma 6B51311C10) (antibody, V domains shown)
VH: EVQLQQSGTVLARPGASVKMSCKASGYIFTSYWVHWVKQRPGQGLEWIGGFYPGNSDSRYNQKFKGKATLTAVTSASTAYMDLSSLTNEDSAVYFCTRRDSPQYWGQGTTLTVSS
VL: DVLMTQTPLSLPVSLGDQASISCRSSQSIVHSNGNTYLEWYLQKPGQSPKLLIYKVSNRFSGVPDRFSGSGSGTDFTLKISRLEAEDLGVYYCFQGSHVPFTFGGGTKLEIK
notes: Murine variable domains (mVH 3 / mVL 3) of the hybridoma antibody
B4: mAb4 (hybridoma 20D2C3G2) (antibody, V domains shown)
VH: QVQLQQSGAELMKPGASVKISCKATGYTFSSSWIEWLKQRPGHGLEWIGEFLPGSGSTDYNEKFKGKATFTADTSSDTAYMLLSSLTSEDSAVYYCATDGNYDWFAYWGQGTLVTVSA
VL: DLVMTQTPLSLPVSLGDQASISCRSSQSLVHSSGVTYLHWYLQKPGQSPKLLIYKVSNRFSGVPDRFSGSGSGTDFTLKISRVEAEDLGVYFCSQSTHVPPTFGSGTKLEIK
notes: Murine variable domains (mVH 4 / mVL 4)

Molecular target: T1, human progastrin (full length, recombinant, produced in E. coli, tag removed) (human)
T1 construct: also called hPG; PG
T1 chain: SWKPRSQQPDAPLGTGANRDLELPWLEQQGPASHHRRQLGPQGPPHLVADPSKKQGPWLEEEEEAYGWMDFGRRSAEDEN
Assay: epitope mapping (details not given)

Binder | binding result
B1 | binds
B2 | binds
B3 | binds
B4 | binds
